Measured values taken from PMC4358367, “Structural basis of diverse membrane target recognitions by ankyrins” (eLife, 2014).
Where no end group is shown, it is not given here.

Molecular target: T1, AnkB_repeats site 1 mutant 'FF' (Phe131 and Phe164 to Gln) (human, UniProt Q01484 28-873, Phe131 substituted with Gln | Phe164 substituted with Gln)
T1 sequence: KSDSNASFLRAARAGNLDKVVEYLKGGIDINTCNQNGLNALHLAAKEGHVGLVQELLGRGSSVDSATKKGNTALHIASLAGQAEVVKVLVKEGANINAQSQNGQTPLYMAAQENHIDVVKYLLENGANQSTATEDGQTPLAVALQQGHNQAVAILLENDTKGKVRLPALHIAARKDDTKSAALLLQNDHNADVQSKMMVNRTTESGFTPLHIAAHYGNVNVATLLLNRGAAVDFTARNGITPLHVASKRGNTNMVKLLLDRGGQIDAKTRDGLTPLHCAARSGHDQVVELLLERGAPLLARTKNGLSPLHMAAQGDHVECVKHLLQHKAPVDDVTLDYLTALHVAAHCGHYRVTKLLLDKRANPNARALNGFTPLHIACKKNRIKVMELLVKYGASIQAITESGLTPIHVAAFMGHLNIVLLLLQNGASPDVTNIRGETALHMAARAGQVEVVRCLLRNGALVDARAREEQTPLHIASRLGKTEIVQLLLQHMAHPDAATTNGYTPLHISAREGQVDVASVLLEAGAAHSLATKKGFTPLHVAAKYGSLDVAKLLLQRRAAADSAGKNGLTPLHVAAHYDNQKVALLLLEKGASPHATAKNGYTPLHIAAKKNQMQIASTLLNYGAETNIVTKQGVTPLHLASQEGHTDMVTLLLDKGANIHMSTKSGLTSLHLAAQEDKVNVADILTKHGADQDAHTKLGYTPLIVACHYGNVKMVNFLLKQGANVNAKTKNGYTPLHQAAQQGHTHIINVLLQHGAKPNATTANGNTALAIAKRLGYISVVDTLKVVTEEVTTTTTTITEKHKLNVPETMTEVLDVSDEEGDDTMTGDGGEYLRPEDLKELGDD
Assay: FP

- Kd: 3.3 µM
B1: Cav1.3 peptide (mouse Cav1.3 residues 2134–2166), FITC-labeled (peptide, UniProt Q99246-4 2134-2166, looked up)
peptide: ELQDFGPGYSDEEPDPGREEEDLADEMICITTL
modifications: also: FITC label (position not given here)
notes: voltage-gated calcium channel Cav1.3, mouse, residues 2134-2166; also called voltage-gated calcium channel Cav1.3 peptide; source: synthetic peptide (commercially synthesized)
